Data from US20220144916A1 (University of Texas, published 2022).

Target: human IgG1 coated on ELISA plates (human, UniProt P01857-1 1-330 = IgG part)
Experiment: competition ELISA, human IgG1 coat; blocked ligand FLAG-tagged FcγRIIIA, anti-FLAG-HRP [panel B]

B1: HCMV viral Fcγ receptor gp34 (residues 24-182), soluble, strep and FLAG tags (receptor)
chain: SSSNAVEPTKKPLKLANYRATCEDRTRTLVTRLNTSHHSVVWQRYDIYSRYMRRMPPLCIITDAYKETTRQGGAAFACTRQNLTLYNLTVKDTGVYLLQDQYTGDVEAFYLIIHPRSFCRALETRRCFYPGPGRVVVTDSQEADRAIISDLKRQWSGLS
notes: range 24-182
  IC50 (read off the curve): ~30 nM
